# Source: PMC2112662
# Target: type IV (basement membrane) collagen of Np cells (Peak II) (mouse (endogenous in Np fibrosarcoma cells))
# Experiment: radioligand binding
substance,measurement,value
laminin (from the EHS (Engelbreth-Holm-Swarm) sarcoma) (from UniProt P19137 25-3083; P02469 22-1786; P02468 34-1607) (complex),laminin specifically bound (cpm) at 50 ng 125I-laminin added,0 cpm
same,laminin specifically bound (cpm) at 500 ng 125I-laminin added,9250 cpm
